This passage reports background-corrected fluorescence results from the supplement of paper PMC9428881.

± gives the standard error.

A short description of the series: background-corrected fluorescence of 3'-dye-labeled ssDNA relative to brightest sequence (3'-GCGCG) (fraction); higher = brighter dye fluorescence (less quenching). An outline of the steps:
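Light-directed phosphoramidite synthesis on glass slides produced single-stranded DNA carrying a 3' Cy3 or Cy5 dye next to each of 1024 permuted pentamers. After a 2 h acetonitrile wash at r.t., arrays were scanned at 532 or 635 nm both before and after overnight deprotection in ethylenediamine/ethanol. Every value is the mean of 10 features per array over at least 3 syntheses. Fluorescence had unlabeled-oligo background subtracted and was scaled to the brightest sequence.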

On to “TTTTTTGATGCTCATGATCATTTTTTTTTTTTTTTCAGCG [GCGAC]”, for which the background-corrected fluorescence by setting is: (dye: Cy3 (3' terminal)) 0.622 ± 0.036; (dye: Cy5 (3' terminal)) 0.502 ± 0.043.

The sequence “TTTTTTGAGCAGCAGCAGCATTTTTTTTTTTTTTTCTTTT” gave a background-corrected fluorescence (dye: Cy3 (3' terminal)) of 0.494 ± 0.021 and a background-corrected fluorescence (dye: Cy5 (3' terminal)) of 0.357 ± 0.035.

For the sequence “TTTTTTGCTCATGAGCAGCATTTTTTTTTTTTTTTAGCTT [TTCGA]”, the background-corrected fluorescence by setting is: (dye: Cy3 (3' terminal)) 0.551 ± 0.021; (dye: Cy5 (3' terminal)) 0.419 ± 0.041.

As for “TTTTTTGCTGATGAGCATGCTTTTTTTTTTTTTTTACCTA [ATCCA]”, the background-corrected fluorescence worked out at 0.449 ± 0.018 (dye: Cy3 (3' terminal)) and 0.366 ± 0.019 (dye: Cy5 (3' terminal)).

For the sequence “TTTTTTCAGCATGCTCAGCATTTTTTTTTTTTTTTGTAGT [TGATG]”, the background-corrected fluorescence came to 0.575 ± 0.0066 (dye: Cy3 (3' terminal)) and 0.459 ± 0.032 (dye: Cy5 (3' terminal)).

For “TTTTTGCATGAGCATGCGCATTTTTTTTTTTTTTTTCTAT [TATCT]”, the background-corrected fluorescence by setting is: (dye: Cy3 (3' terminal)) 0.501 ± 0.027; (dye: Cy5 (3' terminal)) 0.37 ± 0.029.

As for “TTTTTTGATGATGAGCATGCTTTTTTTTTTTTTTTCCCTA [ATCCC]”, the background-corrected fluorescence reads like this: (dye: Cy3 (3' terminal)) 0.458 ± 0.025; (dye: Cy5 (3' terminal)) 0.35 ± 0.019.

As to “TTTTTGCATGCGCATGCGCATTTTTTTTTTTTTTTTATAT”, the background-corrected fluorescence runs as follows: (dye: Cy3 (3' terminal)) 0.5701 ± 0.0051; (dye: Cy5 (3' terminal)) 0.405 ± 0.037.

As for “TTTTTTCATCATGATCATGATTTTTTTTTTTTTTTGGCGC [CGCGG]”, the background-corrected fluorescence runs as follows: (dye: Cy3 (3' terminal)) 0.627 ± 0.028; (dye: Cy5 (3' terminal)) 0.551 ± 0.064.

In turn, “TTTTTTGCTGCTGCGCATGATTTTTTTTTTTTTTTAAATC [CTAAA]” had a background-corrected fluorescence (dye: Cy3 (3' terminal)) of 0.439 ± 0.019 and a background-corrected fluorescence (dye: Cy5 (3' terminal)) of 0.306 ± 0.019.

Regarding “TTTTTGCATCATCAGCATGCTTTTTTTTTTTTTTTTGGTA [ATGGT]”, the background-corrected fluorescence runs as follows: (dye: Cy3 (3' terminal)) 0.609 ± 0.0091; (dye: Cy5 (3' terminal)) 0.492 ± 0.033.

Take “TTTTTTGCGCAGCATGATCATTTTTTTTTTTTTTTATTCG [GCTTA]”: the background-corrected fluorescence came to 0.519 ± 0.034 (dye: Cy3 (3' terminal)) and 0.388 ± 0.021 (dye: Cy5 (3' terminal)).

Take “TTTTTGCATGATGCTGCTGATTTTTTTTTTTTTTTTCAAC [CAACT]”: the background-corrected fluorescence by setting is: (dye: Cy3 (3' terminal)) 0.429 ± 0.0094; (dye: Cy5 (3' terminal)) 0.318 ± 0.025.

With “TTTTTTGCGCATGCTCAGCATTTTTTTTTTTTTTTATAGT [TGATA]”, the background-corrected fluorescence is, setting by setting: (dye: Cy3 (3' terminal)) 0.587 ± 0.029; (dye: Cy5 (3' terminal)) 0.482 ± 0.041.

Consider “TTTTTTCATGCTCATCATGCTTTTTTTTTTTTTTTGAGGA [AGGAG]”, for which the background-corrected fluorescence by setting is: (dye: Cy3 (3' terminal)) 0.747 ± 0.023; (dye: Cy5 (3' terminal)) 0.669 ± 0.059.

For the sequence “TTTTTTCATGATGAGCATGCTTTTTTTTTTTTTTTGCCTA [ATCCG]”, the background-corrected fluorescence stood at 0.493 ± 0.016 (dye: Cy3 (3' terminal)) and 0.366 ± 0.039 (dye: Cy5 (3' terminal)).

As for “TTTTTTGATCATCAGCATCATTTTTTTTTTTTTTTCGGTG [GTGGC]”, the background-corrected fluorescence is, setting by setting: (dye: Cy3 (3' terminal)) 0.574 ± 0.02; (dye: Cy5 (3' terminal)) 0.484 ± 0.031.

Consider “TTTTTTGCTCATGATGCGCATTTTTTTTTTTTTTTAGCAT [TACGA]”, for which the background-corrected fluorescence (dye: Cy3 (3' terminal)) amounted to 0.519 ± 0.039 and the background-corrected fluorescence (dye: Cy5 (3' terminal)) was 0.405 ± 0.032.

As for “TTTTTGCATGCTGCTGCTCATTTTTTTTTTTTTTTTAAAG [GAAAT]”, the background-corrected fluorescence turned out to be 0.552 ± 0.036 (dye: Cy3 (3' terminal)) and 0.397 ± 0.021 (dye: Cy5 (3' terminal)).

In the case of “TTTTTTGCTGATCAGCAGCATTTTTTTTTTTTTTTACGTT [TTGCA]”, the background-corrected fluorescence is 0.552 ± 0.018 (dye: Cy3 (3' terminal)) and 0.433 ± 0.029 (dye: Cy5 (3' terminal)).

For “TTTTTTGATCAGCATGCTGATTTTTTTTTTTTTTTCGTAC”, the background-corrected fluorescence (dye: Cy3 (3' terminal)) came out at 0.49 ± 0.01 and the background-corrected fluorescence (dye: Cy5 (3' terminal)) came to 0.376 ± 0.053.

For “TTTTTGCATGCGCAGCATCATTTTTTTTTTTTTTTTATTG [GTTAT]”, the background-corrected fluorescence came out at 0.522 ± 0.018 (dye: Cy3 (3' terminal)) and 0.359 ± 0.021 (dye: Cy5 (3' terminal)).

“TTTTTGCATGCTGCGCAGCATTTTTTTTTTTTTTTTAATT”: the background-corrected fluorescence (dye: Cy3 (3' terminal)) was found to be 0.549 ± 0.014 and the background-corrected fluorescence (dye: Cy5 (3' terminal)) was 0.377 ± 0.027.

Sequence “TTTTTTGATGATCATCAGCATTTTTTTTTTTTTTTCCGGT [TGGCC]” had a background-corrected fluorescence (dye: Cy3 (3' terminal)) of 0.729 ± 0.028 and a background-corrected fluorescence (dye: Cy5 (3' terminal)) of 0.624 ± 0.064.

Turning to “TTTTTTCATGATCATGATCATTTTTTTTTTTTTTTGCGCG”, the background-corrected fluorescence by setting is: (dye: Cy3 (3' terminal)) 1 ± 0.024; (dye: Cy5 (3' terminal)) 1 ± 0.035.

On to “TTTTTTGATCATGATGATGATTTTTTTTTTTTTTTCGCCC [CCCGC]”, for which the background-corrected fluorescence turned out to be 0.406 ± 0.032 (dye: Cy3 (3' terminal)) and 0.308 ± 0.055 (dye: Cy5 (3' terminal)).

Sequence “TTTTTTGCTGAGCATGATGCTTTTTTTTTTTTTTTACTCA” returned a background-corrected fluorescence (dye: Cy3 (3' terminal)) of 0.482 ± 0.028 and a background-corrected fluorescence (dye: Cy5 (3' terminal)) of 0.346 ± 0.028.

Turning to “TTTTTTGCTCAGCAGCAGCATTTTTTTTTTTTTTTAGTTT [TTTGA]”, the background-corrected fluorescence runs as follows: (dye: Cy3 (3' terminal)) 0.577 ± 0.017; (dye: Cy5 (3' terminal)) 0.404 ± 0.022.

On to “TTTTTTGCTCATCATCATCATTTTTTTTTTTTTTTAGGGG [GGGGA]”, for which the background-corrected fluorescence came out at 0.69 ± 0.019 (dye: Cy3 (3' terminal)) and 0.591 ± 0.028 (dye: Cy5 (3' terminal)).
